In patent US20190241648A1 (STATEN BIOTECHNOLOGY B V, published 2019):
Ends that are not written are not given here.

Columns and labels:
Test in all cases: cyclic peptide substitution array
ApoC3 peptide D68G = target: T1, ApoC3 peptide D68G (human, cyclic (thioether))
T1 peptide: DKFSEFWDLGPEV
Excerpt: (§1) S62 and D68 of mature huApoC3 were also highly conserved; substitution of S62 by A or V, and substitution of D68 by E or P, caused decrease of spot intensities by ˜60% or higher. […] Amino acid F64 was completely variable.
(§2) Pre: staining of one of the ApoC3 peptide microarrays was done with the secondary antibody goat anti-human IgG (Fe) DyLight680 (1:5000) and control antibody mouse monoclonal anti-HA (12CA5) DyLight800 (1:2000) to investigate background interactions of the secondary antibody with the antigen-derived peptides that could interfere with the main assays. Subsequent incubation of other ApoC3 peptide microarrays with antibody samples was followed by staining with secondary and control antibodies as well as read-out at scanning intensities of 7/7 (red/green). The additional HA peptides framing the peptide arrays were stained as internal quality control to confirm the assay quality and the peptide microarray integrity.

ApoC3 peptide D59P = target: T2, ApoC3 peptide D59P (human, thioether (positions not given here); not fully specified (C-terminus, bridges); also: cyclised via thioether between a C-terminal Cys and a modified N-terminus, the Cys and the N-terminal …)
T2 peptide: PKFSEFWDLDPEV
Excerpt: as §1, §2

ApoC3 peptide F61A = target: T3, ApoC3 peptide F61A (human, cyclic (thioether))
T3 peptide: DKASEFWDLDPEV
Excerpt: as §1, §2

ApoC3 peptide W65R = target: T4, ApoC3 peptide W65R (human, cyclic (thioether))
T4 peptide: DKFSEFRDLDPEV
Excerpt: as §1, §2

ApoC3 peptide E70Q = target: T5, ApoC3 peptide E70Q (human, cyclic (thioether))
T5 peptide: DKFSEFWDLDPQV
Excerpt: as §1, §2

ApoC3 peptide D59F = target: T6, ApoC3 peptide D59F (human, thioether (positions not given here); not fully specified (C-terminus, bridges))
T6 peptide: FKFSEFWDLDPEV
Excerpt: as §1, §2

ApoC3 peptide E70C = target: T7, ApoC3 peptide E70C (human, cyclic (thioether))
T7 peptide: DKFSEFWDLDPCV
Excerpt: as §1, §2

ApoC3 peptide W65Y = target: T8, ApoC3 peptide W65Y (human, cyclic (thioether))
T8 peptide: DKFSEFYDLDPEV
Excerpt: as §1, §2

ApoC3 peptide P69D = target: T9, ApoC3 peptide P69D (human, not fully specified; cyclic (thioether))
T9 peptide: DKFSEFWDLDDEV
Excerpt: as §1, §2

ApoC3 peptide P69A = target: T10, ApoC3 peptide P69A (human, thioether (positions not given here); not fully specified (bridges); also: thioether from modified N-terminus to C-terminal Cys (Cys not in chain))
T10 peptide: DKFSEFWDLDAEV
Excerpt: as §1, §2

ApoC3 peptide D66Y = target: T11, ApoC3 peptide D66Y (human, cyclic (thioether))
T11 peptide: DKFSEFWYLDPEV
Excerpt: as §1, §2

ApoC3 peptide D66E = target: T12, ApoC3 peptide D66E (human, not fully specified; cyclic (thioether))
T12 peptide: DKFSEFWELDPEV
Excerpt: as §1, §2

ApoC3 peptide S62Q = target: T13, ApoC3 peptide S62Q (human, thioether (positions not given here); also: cyclic (thioether), ring places not given here)
T13 peptide: DKFQEFWDLDPEV
Excerpt: as §1, §2

ApoC3 peptide E63Q = target: T14, ApoC3 peptide E63Q (human, cyclic (thioether))
T14 peptide: DKFSQFWDLDPEV
Excerpt: as §1, §2

ApoC3 peptide E70S = target: T15, ApoC3 peptide E70S (human, cyclic (thioether))
T15 peptide: DKFSEFWDLDPSV
Excerpt: as §1, §2

ApoC3 peptide W65A = target: T16, ApoC3 peptide W65A (human, not fully specified; cyclic (thioether))
T16 peptide: DKFSEFADLDPEV
Excerpt: as §1, §2

ApoC3 peptide V71R = target: T17, ApoC3 peptide V71R (human, not fully specified; cyclic (thioether))
T17 peptide: DKFSEFWDLDPER
Excerpt: as §1, §2

ApoC3 peptide W65S = target: T18, ApoC3 peptide W65S (human, cyclic (thioether))
T18 peptide: DKFSEFSDLDPEV
Excerpt: as §1, §2

ApoC3 peptide F64A = target: T19, ApoC3 peptide F64A (human, cyclic (thioether))
T19 peptide: DKFSEAWDLDPEV
Excerpt: as §1, §2

ApoC3 peptide S62V = target: T20, ApoC3 peptide S62V (human, thioether (positions not given here); also: cyclic (thioether), ring places not given here)
T20 peptide: DKFVEFWDLDPEV
Excerpt: as §1, §2

ApoC3 peptide K60C = target: T21, ApoC3 peptide K60C (human, thioether (positions not given here); not fully specified (bridges); also: cyclic (thioether), positions not given here)
T21 peptide: DCFSEFWDLDPEV
Excerpt: as §1, §2

ApoC3 peptide F61N = target: T22, ApoC3 peptide F61N (human, cyclic (thioether))
T22 peptide: DKNSEFWDLDPEV
Excerpt: as §1, §2

ApoC3 peptide V71D = target: T23, ApoC3 peptide V71D (human, thioether (positions not given here); also: cyclic (thioether), ring places not given here)
T23 peptide: DKFSEFWDLDPED
Excerpt: as §1, §2

ApoC3 peptide D66S = target: T24, ApoC3 peptide D66S (human, not fully specified; cyclic (thioether))
T24 peptide: DKFSEFWSLDPEV
Excerpt: as §1, §2

ApoC3 peptide V71G = target: T25, ApoC3 peptide V71G (human, thioether (positions not given here); also: cyclic (thioether), ring places not given here)
T25 peptide: DKFSEFWDLDPEG
Excerpt: as §1, §2

ApoC3 peptide E63I = target: T26, ApoC3 peptide E63I (human, cyclic (thioether))
T26 peptide: DKFSIFWDLDPEV
Excerpt: as §1, §2

ApoC3 peptide D66P = target: T27, ApoC3 peptide D66P (human, not fully specified; cyclic (thioether))
T27 peptide: DKFSEFWPLDPEV
Excerpt: as §1, §2

ApoC3 peptide S62E = target: T28, ApoC3 peptide S62E (human, not fully specified; cyclic (thioether))
T28 peptide: DKFEEFWDLDPEV
Excerpt: as §1, §2

ApoC3 peptide D68V = target: T29, ApoC3 peptide D68V (human, not fully specified; cyclic (thioether))
T29 peptide: DKFSEFWDLVPEV
Excerpt: as §1, §2

ApoC3 peptide F61H = target: T30, ApoC3 peptide F61H (human, cyclic (thioether))
T30 peptide: DKHSEFWDLDPEV
Excerpt: as §1, §2

ApoC3 peptide K60E = target: T31, ApoC3 peptide K60E (human, cyclic (thioether))
T31 peptide: DEFSEFWDLDPEV
Excerpt: as §1, §2

ApoC3 peptide K60H = target: T32, ApoC3 peptide K60H (human, cyclic (thioether))
T32 peptide: DHFSEFWDLDPEV
Excerpt: as §1, §2

B1: Llama antibody 5E5 (antibody, V domains shown)
VH: QLQLVESGGGLVQPGGSLRLSCAASGFTFGTYSMRWVRQVPRKALEWVSSISTDGGGTAYRDSVKGRFTISRDNAKNTLYLQMNNLKPEDTAIYYCVIAGYSDWGQGTQVTVSS
VL: ATMLTQSPGSLSVVPGESASISCKTSQGLVHSDGKTYFYWFLQKPGQSPQQLIYQVSNRASGVPDRFTGSGSGTDFTLKISGVKAEDAGVYYCAQGTYYPHTFGSGTRLEIK
notes: detected with goat anti-human IgG (Fc); also called mAb 5E5
% of binding to wild-type peptide (ApoC3 peptide D68G): 3.59% | % of binding to wild-type peptide (ApoC3 peptide D59P): 69.3% | % of binding to wild-type peptide (ApoC3 peptide F61A): 17.4% | % of binding to wild-type peptide (ApoC3 peptide W65R): 0.02% | % of binding to wild-type peptide (ApoC3 peptide E70Q): 68% | % of binding to wild-type peptide (ApoC3 peptide D59F): 31.6% | % of binding to wild-type peptide (ApoC3 peptide E70C): 27.1% | % of binding to wild-type peptide (ApoC3 peptide W65Y): 0% | % of binding to wild-type peptide (ApoC3 peptide P69D): 21.6% | % of binding to wild-type peptide (ApoC3 peptide P69A): 25.7% | % of binding to wild-type peptide (ApoC3 peptide D66Y): 0% | % of binding to wild-type peptide (ApoC3 peptide D66E): 2.16% | % of binding to wild-type peptide (ApoC3 peptide S62Q): 1.13% | % of binding to wild-type peptide (ApoC3 peptide E63Q): 32.4% | % of binding to wild-type peptide (ApoC3 peptide E70S): 55.2% | % of binding to wild-type peptide (ApoC3 peptide W65A): 0% | % of binding to wild-type peptide (ApoC3 peptide V71R): 57.3% | % of binding to wild-type peptide (ApoC3 peptide W65S): 0% | % of binding to wild-type peptide (ApoC3 peptide F64A): 220% | % of binding to wild-type peptide (ApoC3 peptide S62V): 30.5% | % of binding to wild-type peptide (ApoC3 peptide K60C): 67.2% | % of binding to wild-type peptide (ApoC3 peptide F61N): 25.9% | % of binding to wild-type peptide (ApoC3 peptide V71D): 111% | % of binding to wild-type peptide (ApoC3 peptide D66S): 0% | % of binding to wild-type peptide (ApoC3 peptide V71G): 91.9% | % of binding to wild-type peptide (ApoC3 peptide E63I): 0% | % of binding to wild-type peptide (ApoC3 peptide D66P): 0% | % of binding to wild-type peptide (ApoC3 peptide S62E): 0% | % of binding to wild-type peptide (ApoC3 peptide D68V): 0% | % of binding to wild-type peptide (ApoC3 peptide F61H): 12.1% | % of binding to wild-type peptide (ApoC3 peptide K60E): 362% | % of binding to wild-type peptide (ApoC3 peptide K60H): 116%
